± gives the uncertainty stated by the source.

A short description of the data set: amyloid nucleation score (Sup35N fusion, yeast selection) (log enrichment); library NNK1; higher = more nucleation; inactive = no reads after selection. In outline: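 Using DiMSum, nucleation scores were taken as the log enrichment of output over input reads, centred on the mode score of non-aggregating sequences. The input and output reads came from Illumina sequencing of plasmid inserts, with sequences under 100 input reads excluded. The yeast were psi-negative, expressed Sup35N fused to peptides of 20 random codons, were induced with 100 μM copper sulfate for 24 hours, and were grown 7 days at 30°C on medium lacking adenine and uracil.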
The substance QALYSCDDYRGYRTSQCPRS returned an amyloid nucleation score of -1.13 ± 1.9. To KSCDSESFYGDTRSFHTDSV belongs -1.5 ± 1.3. The substance ISQKNDAMNYYIGMSQM returned an amyloid nucleation score of 1.52 ± 0.34. QMLIAGGAKTGTPLFPGASS: the amyloid nucleation score was found to be 0.358 ± 0.5. Consider GRPNATIKNLVIFSEMFYSL, for which the amyloid nucleation score stood at 4.68 ± 0.063.

DYRGTPNSWMIFMTPRGSLI registered an amyloid nucleation score of -0.004 ± 1.1. Substance DRAGERMGIR had an amyloid nucleation score of 0.13 ± 0.28. Consider TMNNFVLKSAFLKSAFTTGV, for which the amyloid nucleation score is -1.04 ± 2.1. The substance FIHSRE displayed an amyloid nucleation score of 0.366 ± 0.31. The result for LYMYSLSFLMGGNANHRLGM reads 1.98 ± 0.16; that for DGKHWTDYLVMY, 1.5 ± 0.47. MDKCIVSGVVESIFTGGAVI registered an amyloid nucleation score of -0.361 ± 0.75. For the substance CFSDKS, the amyloid nucleation score was -0.621 ± 0.42. ICTFVMKLTAFVIIVLVFFH returned an amyloid nucleation score of -0.125 ± 0.26. Substance RELLGGVRNRLVYR came in with an amyloid nucleation score of -0.192 ± 0.23. For the substance IKLTPLMLRTTELV, the amyloid nucleation score is -1.32 ± 0.5.

For ALDVWVLMKHSYGLSTVDAL, the amyloid nucleation score entry is “inactive”. For the substance VRLIRGGFDGHADNAVCRWQ, the amyloid nucleation score came out at 0.279 ± 0.7. Take SSKMNILP: the amyloid nucleation score stood at 0.51 ± 0.26. To LVILVTIVDFMEDLSW belongs 0.74 ± 0.54; to IDKNVIIIKVLCMLIVFPTG, -0.771 ± 0.82; to HIDWSNVSYGDDRYGSGDCR, 0.142 ± 0.19.

The substance KRDLPTQTTDNLACSWAPTQ had an amyloid nucleation score of -0.884 ± 2.4. Substance HLRIGLNDVSLIISLTDKRT registered an amyloid nucleation score of -1.07 ± 0.47. Regarding YQQSCWVLYGTNLRYSNQSW, the amyloid nucleation score came to 1.74 ± 0.14. To ESSNSLL belongs -0.244 ± 0.4.

The substance CFPTWYLLLDCWVQFPAHTK showed an amyloid nucleation score of 2.56 ± 0.16.

As for IFVSHYNVR, the amyloid nucleation score came out at 0.734 ± 0.25.

Substance WCKILYAKQERWP returned an amyloid nucleation score of 0.677 ± 0.44. DRKVGNHLFTRVCDEATMLM registered an amyloid nucleation score of 1.75 ± 0.41. The result for CLPQLTDQPPKFHRLQFFCV reads 0.348 ± 0.4.

CIRREFSHDESDVNRSTWFI displayed an amyloid nucleation score of 0.391 ± 0.71. For the substance TYYNLYSVRGGCFAHDVLAC, the amyloid nucleation score came to 0.234 ± 0.31. Consider RRWALRYINSATLFFLKVIG, for which the amyloid nucleation score was -0.661 ± 0.93. The result for LAEVQRKTR reads -0.291 ± 0.59. The result for MRFSPVPCLNF reads 0.353 ± 0.43; that for KLYPFL, 0.565 ± 0.32; that for YCTCRLVKFEVDW, “inactive”. In turn, GATTMFEVGICNENRKVYVE had an amyloid nucleation score of -0.179 ± 0.29. The substance TIINLGILLYYVGFFSIDPG came in with an amyloid nucleation score of 5.866 ± 0.052. For the substance MSQDR, the amyloid nucleation score was -0.061 ± 0.94.

The substance IVMFVGFCGENKLAWDSRRK yielded an amyloid nucleation score of 5.03 ± 0.05.

With SVTHKTKCRLQFGVEMGQN, the amyloid nucleation score turned out to be 1.13 ± 0.8. With HIKHSMMFGTYTK, the amyloid nucleation score was -1.2 ± 0.72. SHGSTLLARYCRINGWPATP gave an amyloid nucleation score of -0.167 ± 0.71. SSGPVFYKLPRLHCVGSHRH yielded an amyloid nucleation score of 0.603 ± 0.5.

The substance RPFLIIKLLGVGLSVKPNCG showed an amyloid nucleation score of -0.158 ± 0.64. STCLGGERSYRYVMWLVLVV showed an amyloid nucleation score of 0.148 ± 0.42.

As for RRWFYLGAFVYKSNTIDVGV, the amyloid nucleation score is -0.214 ± 0.35. The substance TRKWEYTSKVRVQRGSVYLL came in with an amyloid nucleation score of 0.13 ± 0.65. Take FSKVGCDKVIRPGKVPFRSF: the amyloid nucleation score came to 0.491 ± 0.9. The result for SIGVGCGEVCFLYRSEPIFV reads -0.04 ± 0.31.

The substance SNTSRLVRRVVQSPYTTCGG returned an amyloid nucleation score of 0.312 ± 0.46. The result for NVSSLQDFRVMFWIFECTTR reads 0.052 ± 0.44; that for WCWLCVKRR, -0.108 ± 0.56; that for CTLSYCWWMAQYPDISRLIT, -0.362 ± 0.74. In turn, FNYFYVLYS registered an amyloid nucleation score of 5.35 ± 0.074. For YGLPLWCNMCSRSANRC, the amyloid nucleation score was found to be 0.365 ± 0.48. The result for CRMGMLYEISQC reads 0.743 ± 0.76; that for RSHGKAEFEHVGLKFIAG, -0.903 ± 1.7. The result for ICISSPVMMKAIPLPFEFSR reads -0.167 ± 0.43. To ALSYGIVAMMVVIGPGIVVC belongs 0.388 ± 0.27. For the substance LRAFR, the amyloid nucleation score turned out to be 1.81 ± 0.33. As for LAITDKPNANARRPPTPVLY, the amyloid nucleation score stood at 0.623 ± 0.51. YCIYVGFDLMCLSVWNGHRS displayed an amyloid nucleation score of -1.39 ± 0.66. QNFNFSWVYTFYTRICTLYF: the amyloid nucleation score came to 5.872 ± 0.047.

In the case of TVVHPFSYA, the amyloid nucleation score was 0.487 ± 0.49. Consider SGKNRYIVSSCSWLWAREDL, for which the amyloid nucleation score was 0.424 ± 1. Regarding HYSGIVWCSVREL, the amyloid nucleation score was 1.72 ± 0.52. The result for CVSHNVILRK reads 2.4 ± 0.092; that for WLSRSSFMKLCSTKFPRWRL, -0.494 ± 1.1. In turn, NLTWRGSRDTFECYVDGA yielded an amyloid nucleation score of -0.186 ± 0.47. The result for SCNFLYGRRLFL reads -0.127 ± 0.55; that for VFLLVPWPVSFGGRIHACEW, 0.286 ± 0.47; that for GSMNVECDRDRDRYNVCHYR, -0.569 ± 0.39.

With KFSFCKS, the amyloid nucleation score turned out to be 0.207 ± 0.31. The result for RDWTRGHACRYCSWQWVARG reads 0.529 ± 0.88; that for GGLKMTP, 0.393 ± 0.25; that for DLILPRRLSYGYLPVLEGPS, -0.222 ± 0.76. Consider LYSVISPLSEDTYDCLSVPY, for which the amyloid nucleation score came to 0.297 ± 0.79.

FFHNTSHASYIK had an amyloid nucleation score of 1.09 ± 0.13. For the substance FWGCTQMSRLDATDVSL, the amyloid nucleation score turned out to be 0.867 ± 1.

In turn, CRSVVGVGSCRTGPEEGVYP showed an amyloid nucleation score of -0.106 ± 1.7. In the case of NMFAWV, the amyloid nucleation score entry is “inactive”.

For SLVCNMFLSILRYFGFLNRS, the amyloid nucleation score entry was “inactive”. The substance YFFFYYYVVTIRKLLHVMGT displayed an amyloid nucleation score of -0.854 ± 0.63. For YFDRNFARYFCYRVTTT, the amyloid nucleation score was 1.48 ± 0.2. In turn, KVFLRMQRSSGTVKCKSQTE had an amyloid nucleation score of -0.065 ± 0.41. As for LWIQMLAWCSRCM, the amyloid nucleation score turned out to be 1.65 ± 0.32. IEESSWLLDFRSGSALSEVS had an amyloid nucleation score of -0.542 ± 0.86.

The substance ASTSYPWKSGVMVGGKLKNP yielded an amyloid nucleation score of 0.287 ± 0.53. For the substance ILMYMWDKLNLYNIWFLRQV, the amyloid nucleation score was 0.263 ± 0.5. RMIIYNKYRCNSYLTNMGFG came in with an amyloid nucleation score of 2 ± 0.34. The result for NCVTTNIGFN reads 0.124 ± 0.9; that for MNVTCDGRMGIQVDPVRYNR, -0.122 ± 1.4.

As for THYIFLVYLWVYPGTDGWQR, the amyloid nucleation score entry is “inactive”.

YRDFGGN returned an amyloid nucleation score of 0.076 ± 0.24. With YTIGTRPTMLRLFGVLRWAG, the amyloid nucleation score was found to be 1.19 ± 0.43. In turn, DPICFYYYFLVN returned an amyloid nucleation score of -2.01 ± 1.5.

As for FVAVNILDMMKAYKLFENLF, the amyloid nucleation score was -0.256 ± 0.22. The result for LTLFQYAFDVHETAVLKLEW reads -0.166 ± 0.4; that for VFSDQQDHQHGWTYETSLSA, 0.619 ± 0.7; that for ISKNLNRMHILVLYMVGMRF, 0.259 ± 0.88.
